In the test the target is T1, human NRP1 protein (human, UniProt O14786 22-856, limits assumed).
T1 construct: also called hNRP1 protein; neuropilin 1
T1 sequence (looked up): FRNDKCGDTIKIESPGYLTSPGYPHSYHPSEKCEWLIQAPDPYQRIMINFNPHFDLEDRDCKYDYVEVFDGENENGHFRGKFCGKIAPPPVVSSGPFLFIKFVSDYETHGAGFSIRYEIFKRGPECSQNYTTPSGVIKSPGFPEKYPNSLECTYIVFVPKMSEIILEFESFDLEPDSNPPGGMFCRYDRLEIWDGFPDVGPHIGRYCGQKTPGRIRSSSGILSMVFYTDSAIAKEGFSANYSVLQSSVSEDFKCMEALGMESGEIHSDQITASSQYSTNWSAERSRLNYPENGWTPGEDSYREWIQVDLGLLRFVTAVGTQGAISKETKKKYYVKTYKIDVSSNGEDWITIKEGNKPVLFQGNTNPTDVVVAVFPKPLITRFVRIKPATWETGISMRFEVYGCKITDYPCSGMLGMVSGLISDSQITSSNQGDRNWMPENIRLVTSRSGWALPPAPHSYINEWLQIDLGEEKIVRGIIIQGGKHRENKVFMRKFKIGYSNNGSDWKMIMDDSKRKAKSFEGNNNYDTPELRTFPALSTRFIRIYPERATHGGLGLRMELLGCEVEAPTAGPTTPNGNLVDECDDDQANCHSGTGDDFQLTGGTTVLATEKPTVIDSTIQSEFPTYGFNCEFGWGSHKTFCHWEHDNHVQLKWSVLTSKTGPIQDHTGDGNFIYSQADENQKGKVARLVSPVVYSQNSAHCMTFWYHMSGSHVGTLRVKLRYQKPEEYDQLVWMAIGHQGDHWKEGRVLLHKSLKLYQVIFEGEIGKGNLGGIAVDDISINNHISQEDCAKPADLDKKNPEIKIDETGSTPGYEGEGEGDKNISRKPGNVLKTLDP
The experiment in a line: SPR, Biacore T100. (In general: In SPR one partner is held on a chip, and binding of the other changes the refractive index at the surface.)

B1: 3H10 scFv (scFv, V domains shown)
VH: EVQLLESGGGLVQFQQSLRLSQAASQFTFSSYYMSWVRQAFGKGLEWVSAISPGSSNKYYADSVKGRFTISRDNSKNTLYLQMNELRAEDTAVYYCARRKYMFDYWGQGTLVTVSS
VL: GSVLTQPPSASGTPGQRVTISCTGESSNIGNNDVYWYQQLPGTAFKLLIYSQSNRPSGMPDRFSGSKSGTSASLAISGLRSEDEADYYCASWDSSLSGYVFGGGTKLTVTL
Broadly, the Kd is the free concentration of one partner at which half of the binding sites on the other are occupied at equilibrium, for simple one-to-one binding. Higher therefore signals a looser complex. In turn, B1 registered a Kd of 295 nM.

B2: 1A03 scFv (scFv, V domains shown)
VH: EVQLLESGGGLVQFGGSLRLSQAASGFTFSSYYMSWVRQAFGKGLEWVSAISFGSSNKYYADSVQGRFTISRDNSKNTLYLQMNELRAEDTAVYYCARRKKSFDYWGQGTLVTVSS
VL: QSVLTQFFSASGTPGQRVTISCSGFSSNIGNNDVSWYQQLFGTAPKLLIYSCNNRPSGVPDRFSGSKSGTSASLAISGLRSSDEADYYCGAWVASLSAYVFGGGTKLTVTL
With B2, the Kd was determined as 89.4 nM.

The values above are taken from US20190227052A1 (published 2019).
